These are literature values, as cited in article PMC9406205.

For data set [1], the target named is GAPDH (Chlamydomonas reinhardtii) (UniProt P50362). Put plainly: surface plasmon resonance. For orientation: SPR reads the build-up and loss of mass on a sensor chip optically.
In data set [2] the target is PRK (Chlamydomonas reinhardtii) (UniProt P19824). Put plainly: surface plasmon resonance.
Chain of UniProt P19824 (P19824 32-375): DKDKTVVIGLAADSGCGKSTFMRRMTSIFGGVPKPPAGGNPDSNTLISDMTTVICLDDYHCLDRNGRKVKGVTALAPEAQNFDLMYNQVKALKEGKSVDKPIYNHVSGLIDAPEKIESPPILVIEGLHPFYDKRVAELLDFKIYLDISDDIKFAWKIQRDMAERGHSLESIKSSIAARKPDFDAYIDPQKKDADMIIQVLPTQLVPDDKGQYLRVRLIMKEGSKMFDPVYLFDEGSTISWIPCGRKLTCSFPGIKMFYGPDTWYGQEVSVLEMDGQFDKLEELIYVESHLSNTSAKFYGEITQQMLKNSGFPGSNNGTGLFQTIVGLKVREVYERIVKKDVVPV

Consider CP12 (from UniProt A6Q0K5), for which the Kd in data set [1] was 0.44 nM. On to “GAPDH-CP12 subcomplex (from UniProt P50362)”, for which the Kd in data set [2] is 60 nM.

For orientation: Kd means the free concentration of one partner at which half of the binding sites on the other are occupied at equilibrium, for simple one-to-one binding.
